# According to publication PMC10652518, “Enzyme kinetics of deoxyuridine triphosphatase from Western corn rootworm” (BMC Research Notes, 2023):
# B1: Western corn rootworm (Diabrotica virgifera virgifera) deoxyuridine 5'-triphosphate nucleotidohydrolase (dUTPase), construct from residue 25 with Arg89Lys, … (enzyme, UniProt A0A6P7FUX9 25-168, looked up)
# chain: GANILLKYTKVIEEAYPPTKGSVKAAGYDLKSAHDVVVPARGKALVDTGLKIELPEGCYGRIAPKSGLAVKNFIDVGAGVVDEDYRGLLKVVLFNHSDNDFEVKSGDRIAQLICERIFYPELEEVKELTDTARGEGGFGSTGTQ
# notes: dUTPase of Diabrotica virgifera virgifera LeConte (protein XP_028136545; UniProt ID A0A6P7FUX9_DIAVI); the construct starts at the 25th residue of the WCR dUTPase; Arg89 changed to Lys to prevent secondary thrombin cleavage; Cloned into pET-15 by NcoI and XhoI; also called WCR dUTPase; product of WCR DUT; source: E. coli, purified (Ni-NTA, HiTrap Q; His-tag removed with human alpha-thrombin, …)
# Legend:
# [1] = system: T1, O=c1ccn([C@H]2C[C@H](O)[C@@H](COP(=O)(O)OP(=O)(O)OP(=O)(O)O)O2)c(=O)[nH]1; assay: cresol red proton-release assay, stopped-flow spectrophotometer, integrated Michaelis-Menten fit; assay type: biochemical, Diabrotica virgifera; conditions: 50 nM enzyme, 1 mM dUTP; activity prevented by EDTA
# T1 construct: starts at residue 25; R89K to prevent secondary thrombin cleavage; N-terminal 6-His tag cut by thrombin; codon-optimized synthetic gene in pET-15, E. coli; trimer (48 kDa by SEC)
# Text: cresol red proton-release assay, stopped-flow spectrophotometer, integrated Michaelis-Menten fit on WCR dUTPase
# [2] = biological target: the molecule itself; assay: SEC; Superdex matrix, molecular weight calibrated with the BioRad SEC standard; tag-free dUTPase, estimated 48 kDa against 15.6 kDa on SDS-PAGE
Molecule,Km [1] [µM],kcat [1] [s⁻¹],kcat/Km [1] [M⁻¹ s⁻¹],stoichiometry N [2]
WCR dUTPase (Diabrotica virgifera virgifera; R89K),0.7 ± 0.1,30 ± 0.5,4e+07,
B1,,,,3
